Experimental data from the supplement of paper PMC9732359.
± gives the uncertainty stated by the source.

Assay: protein stability index of a GFP-peptide fusion (yeast GPS) (PSI 1-4); higher = more stable; sorted into four equal gates, so the index is relative within each strain
Procedure, shortened: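 Plasmids isolated from each sorting gate were PCR-amplified and Illumina-sequenced, and barcodes assigned the reads to strains. The gates, four of equal size, were set by GFP/Cherry fluorescence ratio on mid-log cultures in leucine-free medium. These cultures were yeast carrying a pooled library of tiled 17-residue yeast protein peptides fused downstream of GFP on a plasmid that also expresses Cherry. The protein stability index is the sum of every gate's read frequency times its gate number.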

Sequence | protein stability index (doa10∆) | protein stability index (pdr5∆) | protein stability index (san1∆) | protein stability index (ubr1∆)
DELDAIGTKRFDSEKSG [RPT5] | 2.46 ± 0.066 | 1.66 ± 0.058 | 2.25 ± 0.086 | 1.99 ± 0.057
DELVKLLLDNGFNMKKI [SRP68] | – | – | 2.98 ± 0.24 | 3.52 ± 0.13
DEMYELTDPMTVMFFYH [DIB1] | 2.69 ± 0.092 | 3.01 ± 0.11 | 2.83 ± 0.14 | 2.85 ± 0.11
DENKAGATSKPAFSFGA [YJL041W/NSP1] | 3.15 ± 0.07 | 3.32 ± 0.068 | 3.33 ± 0.048 | 3.1 ± 0.061
DEVGRRSMLTVVRNMLA [YCG1] | 1.54 ± 0.077 | 2.09 ± 0.079 | 3.01 ± 0.13 | 1.52 ± 0.069
DFDESLKYLDDLKAQFQ [RPN9] | 3.02 ± 0.15 | 3.17 ± 0.075 | 3.12 ± 0.098 | 3.11 ± 0.081
DFIGHNSNINTLTASPD [ASC1] | 2.83 ± 0.075 | 2.87 ± 0.052 | 2.87 ± 0.068 | 2.96 ± 0.039
DFLGVASTGSGKTLAFV [PRP28] | 3.42 ± 0.26 | 3.05 ± 0.22 | 2.92 ± 0.22 | 3.31 ± 0.061
DFPHLTPKLQTQLSYLI [YCS4] | 2.82 ± 0.043 | 2.88 ± 0.045 | 2.79 ± 0.044 | 2.67 ± 0.038
DFQIDGNIFELLSDTFE [RRI2] | 2.04 ± 0.095 | 2.47 ± 0.077 | 2.95 ± 0.11 | 3.16 ± 0.17
DFRTRYIDIRTNNVLRK [MTW1] | 2.45 ± 0.087 | 2.86 ± 0.21 | 2.43 ± 0.27 | 2.66 ± 0.14
DFTLIPRMASVFENYVK [CDC53] | 3.15 ± 0.091 | 2.88 ± 0.06 | 2.71 ± 0.061 | 3.13 ± 0.081
DGHLRAPLKHGVGILYK [BRR2] | 1.31 ± 0.055 | 2.33 ± 0.08 | 1.58 ± 0.2 | 1.26 ± 0.07
DGYQLFHAEPSGTFYRY [PUP2] | 2.14 ± 0.11 | 1.6 ± 0.095 | 2.64 ± 0.062 | 1.5 ± 0.076
DHKYVCTFSMEPYHFIS [SRB8] | 2.37 ± 0.061 | 2.03 ± 0.047 | 1.83 ± 0.059 | 2.09 ± 0.043
DHQHILRKLKKMNNKPE [RPC53] | 1.87 ± 0.053 | 1.7 ± 0.06 | 1.78 ± 0.1 | 1.51 ± 0.044
DIDVTIVSKEYEKNFEA [ESC2] | 3.27 ± 0.15 | 3.06 ± 0.14 | 3.24 ± 0.088 | 3.42 ± 0.16
DIEVPDVNALKFNNTQR [SNF12] | 2.97 ± 0.1 | 3.29 ± 0.06 | 2.98 ± 0.047 | 3.09 ± 0.051
DIFAVNLEESSKLDIYT [RET1] | 2.98 ± 0.097 | 2.78 ± 0.081 | 2.72 ± 0.087 | 3 ± 0.08
DIIQGNPLMYSGGNNTA [PCI8] | 3.17 ± 0.082 | 3.13 ± 0.08 | 3.32 ± 0.047 | 3.24 ± 0.072
DIKDFADKVYTKENLEV [QCR2] | 3.34 ± 0.092 | 3.42 ± 0.11 | 2.69 ± 0.12 | 3.33 ± 0.053
DIPGVRFKVVKVSGVSL [RPS23A] | 1.62 ± 0.084 | 1.11 ± 0.1 | 1.25 ± 0.29 | 1.06 ± 0.079
DIVSIDIEEPQLDLLDD [MTW1] | 2.66 ± 0.098 | 3.17 ± 0.097 | 3.25 ± 0.05 | 3.16 ± 0.048
DIWRVAGKFELLDRILP [SNF2] | 2.37 ± 0.086 | 2.65 ± 0.08 | 2.02 ± 0.14 | 2.54 ± 0.1
DIYMHDVNSASKSESDS [RRP4] | 3.59 ± 0.12 | 3.48 ± 0.1 | 3.15 ± 0.098 | 3.22 ± 0.066
DKARRLGYKAKQGFVIY [RPL15A] | 3.24 ± 0.16 | 3.33 ± 0.23 | 2.91 ± 0.14 | 3.28 ± 0.25
